Assay results as given in patent US20230020729A1 (Memorial Sloan Kettering, published 2023).

T1: human Fc Receptor-Like 5 (FcRL5), full length, expressed on cells (human, UniProt Q96RD9 16-977)
T1 construct: also called CD307e; IRTA2
T1 sequence: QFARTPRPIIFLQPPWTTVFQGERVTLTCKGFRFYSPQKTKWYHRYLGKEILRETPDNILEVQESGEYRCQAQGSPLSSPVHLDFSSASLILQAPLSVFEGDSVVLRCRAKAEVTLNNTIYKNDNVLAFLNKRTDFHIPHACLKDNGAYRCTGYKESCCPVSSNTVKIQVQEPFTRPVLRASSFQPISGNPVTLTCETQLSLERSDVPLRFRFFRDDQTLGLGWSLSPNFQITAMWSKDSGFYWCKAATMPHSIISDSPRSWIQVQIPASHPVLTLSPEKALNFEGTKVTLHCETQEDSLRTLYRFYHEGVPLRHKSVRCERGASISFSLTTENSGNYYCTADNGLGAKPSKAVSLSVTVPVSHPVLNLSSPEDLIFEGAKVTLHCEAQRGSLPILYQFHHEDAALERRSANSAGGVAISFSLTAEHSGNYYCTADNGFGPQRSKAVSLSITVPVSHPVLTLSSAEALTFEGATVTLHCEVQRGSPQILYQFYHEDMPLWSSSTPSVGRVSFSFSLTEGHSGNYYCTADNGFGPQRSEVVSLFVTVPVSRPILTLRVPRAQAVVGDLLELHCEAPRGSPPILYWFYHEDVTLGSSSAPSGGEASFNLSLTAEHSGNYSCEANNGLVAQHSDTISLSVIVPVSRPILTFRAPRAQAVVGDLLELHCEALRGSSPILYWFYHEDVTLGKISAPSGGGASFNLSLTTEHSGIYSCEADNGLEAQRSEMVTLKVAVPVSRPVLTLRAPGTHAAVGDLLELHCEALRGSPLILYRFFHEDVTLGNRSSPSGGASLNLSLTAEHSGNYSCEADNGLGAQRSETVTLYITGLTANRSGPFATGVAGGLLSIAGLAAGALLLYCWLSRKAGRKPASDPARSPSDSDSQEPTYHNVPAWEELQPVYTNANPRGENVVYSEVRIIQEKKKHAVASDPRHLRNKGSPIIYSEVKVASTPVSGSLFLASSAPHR


Target: T1, human Fc Receptor-Like 5 (FcRL5), full …
Assay: scFv phage: ELISA on His-tag FcRL5, flow cytometry on FcRL5-overexpressing 3T3 and Raji cells

Row | Binder | binding result
1 | ET200-018 scFv (scFv, VL-linker-VH; screened as scFv phage clone) scFv: QAVLTQPPSTSGTPGQRVTISCSGSSSNIGRNGVNWYQQLPGAAPKVLIYNDNQRPSGVPDRVSGSQSGSSGTLAIDGLRSEDEADYYCAAWDDSLHGVVFGGGTKLTVLGSRGGGGSGGGGSGGGGSLEMAQVQLVQSGAEVKKPGASVKVSCKVSGYTLNELSMHWVRQAPGKGLEWMGGFDPEDGETIYAQKFQGRVTMTEDTSTDTAYMELSSLRSEDTAVYYCARGGYGDSWGQGTLVTVSS | binds
2 | ET200-002 scFv (scFv, VL-linker-VH; screened as scFv phage clone) scFv: NFMLTQPHSVSESPGKTVTISCTRSSGSIASNYVQWYQQRPGSAPTTVIYEDNQRPSGVPDRFSGSIDSSSNSASLTISGLKTEDEADYYCQSYDSSNSVVFGGGTKLTVLGSRGGGGSGGGGSGGGGSLEMAQVQLVQSGTEVKKPGASVRVACKASGYPFNKYDINWVRQAPGQGLEWMGGIIPIFRTTNYAQKFQGRVTITADESTSTAYMELSSLRSEDTAVYYCAREWFYWDIWGQGTLVTVSS | binds
3 | ET200-021 scFv (scFv, VL-linker-VH; screened as scFv phage clone) scFv: QSVLTQPPSVSAAPGQKVTISCSGSNSNIGNNYVSWYQQLPGTAPKLLIYDNNKRPSGIPDRFSGSRSGTSATLGITGLQTGDEADYYCGTWNTTVTPGYVFGTGTKVTVLGSRGGGGSGGGGSGGGGSLEMAEVQLVQSGAEVKKPGASVKVSCKASGYTFTSYGISWVRQAPGQGLEWMGWISAYNGNTNYAQKLQGRVTMTTDTSTSTAYMELRSLRSDDTAMYYCARSVYDLDTWGQGTLVTVSS | binds
4 | ET200-023 scFv (scFv, VL-linker-VH; screened as scFv phage clone) scFv: LPVLTQPPSVSVAPGKTARITCGGNNIGSKSVHWYQQKPGQAPVLVVYADSDRPSGIPERFSGSNSGNTATLTISRVEAGDEADYYCQVWDSSSYHNYVFGTGTKVTVLGSRGGGGSGGGGSGGGGSLEMAEVQLVQSGAEVKKPGASVKVSCKASGYTFTSYGISWVRQAPGQGLEWMGWISAYNGNTNYAQKLQGRVTMTTDTSTSTAYMELSSLRSEDTAMYYCARYWGFGVSDRWGQGTLVTVSS | binds
5 | ET200-014 scFv (scFv, VL-linker-VH; screened as scFv phage clone) scFv: SYVLTQPPSVSVAPGKTARITCGGNNIGSKSVHWYQQKPGQAPVLVIYYDSDRPSGIPERFSGSNSGNTATLTISRVEAGDEADYYCQVWDSSSDHYVFGTGTKVTVLGSRGGGGSGGGGSGGGGSLEMAEVQLVETGGGLVQPGGSLRLSCAASGFTFSSYAMSWVRQAPGKGLEWVSAISGSDGSTYYADSVKGRFTISRDNSKNTLYLQMNSLRDEDTAVYYCARSHEANLVGDWWGQGTLVTVSS | binds
6 | ET200-016 scFv (scFv, VL-linker-VH; screened as scFv phage clone) scFv: SSELTQDPAVSVALGQTVKITCQGDSLTDYHATWYQQKPGQAPVAVIYATNNRPTGIPDRFSGSSSGNTASLTITGAQAEDEADYYCNSRDSGTDEVLFGGGTKLTVLGSRGGGGSGGGGSGGGGSLEMAEVQLVETGGGLVKPGGSLRLSCAASGFTFSSYSMNWVRQAPGKGLEWVSSISSSSSYIYYADSVKGRFTISRDNAKNSLYLQMNSLRAEDTAVYYCARGQGYDYWGQGTLVTVSS | binds
7 | ET200-015 scFv (scFv, VL-linker-VH; screened as scFv phage clone) scFv: QSVVTQPPSVSVAPGKTARITCGGNNIGSKSVHWYQQKPGQAPVLVIYYDSDRPSGIPERFSGSNSGNTATLTISRVEAGDEADYYCQVWDSSSDVVFGGGTKLTVLGSRGGGGSGGGGSGGGGSLEMAEVQLVQSGAEVKKPGASVKVSCKASGYTFTSYGISWVRQAPGQGLEWMGWISAYNGNTNYAQKLQGRVTMTTDTSTSTAYMELRSLRSDDTAVYYCARWGGFGAVDHWGQGTLVTVSS | binds
8 | ET200-039 scFv (scFv, VL-linker-VH; screened as scFv phage clone; also called ET200-39) scFv: NFMLTQPHSVSESPGKTVTISCTRSSGSIASNYVQWYQQRPGSSPTTVIYEDNQRPSGVPDRFSGSIDSSSNSASLTISGLKTEDEADYYCQSYDSSNWVFGGGTKLTVLGSRGGGGSGGGGSGGGGSLEMAEVQLVQSGAEVKKPGSSVKVSCKASGGTFSSYAISWVRQAPGQGLEWMGGIIPIFGTANYAQKFQGRVTITADESTSTAYMELSSLRSEDTAVYYCARSNYYYNDYWGQGTLVTVSS | binds
9 | ET200-035 scFv (scFv, VL-linker-VH; screened as scFv phage clone) scFv: NFMLTQPHSVSESPGKTVTISCTRSSGSIASNYVQWYQQRPGSAPTTVIYEDNQRPSGVPDRFSGSIDSSSNSASLTISGLKTEDEADYYCQSYDSTNWVFGGGTKLTVLGSRGGGGSGGGGSGGGGSLEMAQVQLVQSGAEVKKPGSSVKVSCKASGGTFSSYAISWVRQAPGQGLEWMGGIIPIFGTANYAQKFQGRVTITADESTSTAYMELSSLRSEDTAVYYCARYNYYFNDYWGQGTLVTVSS | binds
10 | ET200-026 scFv (scFv, VL-linker-VH; screened as scFv phage clone) scFv: NFMLTQPHSVSESPGKTVTISCTGSSGSIASNYVQWYQQRPGSAPTTVIYEDNQRPSGVPDRFSGSIDSSSNSASLTISGLKTEDEADYYCQSYDSSNWVFGGGTKLTVLGSRGGGGSGGGGSGGGGSLEMAEVQLVQSGAEVKKPGSSVKVSCKASGGTFSSYAISWVRQAPGQGLEWMGGIIPIFGTANYAQKFQGRVTITADESTSTAYMELSSLRSEDTAVYYCARNNHYYNDYWGQGTLVTVSS | binds
11 | ET200-020 scFv (scFv, VL-linker-VH; screened as scFv phage clone) scFv: QSVVTQPPSVSAAPGQKVTISCSGSTSNIGNNDVSWYQQLPGTAPKLLIYDNNKRPSGIPDRFSGSKSGTSATLGITGLQTGDEADYYCGTWDSSVSASWVFGRGTKLTVLGSRGGGGSGGGGSGGGGSLEMAQVQLVQSGAEVKKPGASVKVSCKASGYTFTSYGISWVRQAPGQGLEWMGWISAYNGNTNYPQKLQGRVTMTTDPSTSTAYMELRSLRSDDTAVYYCARSMTSFDYWGQGTLVTVSS | binds
12 | ET200-019 scFv (scFv, VL-linker-VH; screened as scFv phage clone) scFv: NFMLTQPHSVSESPGKTVTISCTRSSGSIASNYVQWYQQRPGSAPTTVIYEDNQRPSGVPDRFSGSIDSSSNSASLTISGLKTEDEADYYCQSYDSSNSWVFGGGTKLTVLGSRGGGGSGGGGSGGGGSLEMAQVQLVQSGAEVKRPGSSVKVSCTASGGTFSSDAISWVRQAPGQGLEWMGGIIPMFGTANYAQKFQGRVTITADESTSTAYMELSSLRSEDTAVYYCAREGYYYPSAYLGSVLNDISSVYDEWGQGTLVTVSS | binds
13 | ET200-022 scFv (scFv, VL-linker-VH; screened as scFv phage clone) scFv: QSVVTQPPSVSAAPGQKVTISCSGSSSNIGNNYVSWYQQLPGTAPKLLIYDNNKRPSGIPDRFSGSKSGTSATLGITGLQTGDEADYYCGTWDSSLGAPYVFGTGTKVTVLGSRGGGGSGGGGSGGGGSLEMAEVQLVQSWGGSEQPGRSLRLSCAASGFTFDDYAMHWVRQAPGKGLEWVSGISWNSGSIGYADSVKGRFTISRDNAKNSLYLQMNSLRAEDTAMYYCARYRQVGSAYDSWGQGTLVTVSS | binds
14 | ET200-012 scFv (scFv, VL-linker-VH; screened as scFv phage clone) scFv: QSVLTQPPSVSAAAGQKVTISCSGSDSNIGNNYVSWYQHLPGTAPKLLIYDVKNRPSGIPDRFSGSKSGSSATLGIAGLQPGDEADYYCGTWDSRLDAYVFGTGTKVTVLGSRGGGGSGGGGSGGGGSLEMAQMQLVQSGAEVKKPGASVKVSCKTSGFPFNIFGITWVRQAPGQGLEWMGWISGYNGNTDYPQKFQGRVTMSTDTSTSTAYMELRNLKSDDTAVYYCARGAYGGMDTWGQGTLVTVSS | binds
15 | ET200-027 scFv (scFv, VL-linker-VH; screened as scFv phage clone) scFv: QSVLTQPPSVSGAPGQGVTIPCTGSSSNIGAGYDVHWYQQLPGTAPKLLIYGNNNRPSGVPDRFSGSRSGSSASLAITGLQAEDEADYYCQSYDSSLSDVVFGGGTKVTVLGSRGGGGSGGGGSGGGGSLEMAEVQLVQSGAEVKKPGATVKISCKVSGYTFTDYYMHWVQQAPGKGLEWMGLVDPEDGETIYAEKFQGRVTITADTSTDTAYMELSSLRSEDTAVYYCARYWSYSFDYLYMPEGNDWWGQGTLVTVSS | binds
16 | ET200-017 scFv (scFv, VL-linker-VH; screened as scFv phage clone) scFv: SYVLTQPPSVSVAPGKTARITCGGNNIGSKSVHWYQQKPGQAPVLVVYDDSDRPSGIPERFSGSNSGNTATLSISRVEAGDEADYYCQVWDSSSDHTVFGTGTKVTVLGSRGGGGSGGGGSGGGGSLEMAQVQLQQWGAGLLKPSETLSLTCAVYGGSFSGYYWSWIRQPPGKGLEWIGEINHSGSTNYNPSLKSRVTISVDTSKNQFSLKLSSVTAADTAVYYCARYYPGMDMWGQGTLVTVSS | binds
17 | ET200-013 scFv (scFv, VL-linker-VH; screened as scFv phage clone) scFv: QSVVTQPPSVSGAPGQRVTISCTGSTSNIGAGYDVHWYQQLPGTAPKLLIYTNNFRPSGVPDRFSASKSGTSASLAITGLQAEDEADYYCGTWDSSLSAVVFGGGTKLTVLGSRGGGGSGGGGSGGGGSLEMAEVQLVESGTEVKKPGASVKVSCKASGYMFTSYGLNWVRQAPGQGLEWMGWISANNGKTNYAKKFQDRVTMTRDTSTSTGYMELRSLRSDDTAVYYCARHIGGSYFDRWGQGTLVTVSS | binds
